Experimental data published in PMC4917648, “praja2 regulates KSR1 stability and mitogenic signaling” (Cell Death & Disease, 2016).

Molecular target: T1, kinase suppressor of Ras 1 (KSR1), endogenous (human (endogenous in HEK293), UniProt Q8IVT5 1-923)
T1 sequence (looked up): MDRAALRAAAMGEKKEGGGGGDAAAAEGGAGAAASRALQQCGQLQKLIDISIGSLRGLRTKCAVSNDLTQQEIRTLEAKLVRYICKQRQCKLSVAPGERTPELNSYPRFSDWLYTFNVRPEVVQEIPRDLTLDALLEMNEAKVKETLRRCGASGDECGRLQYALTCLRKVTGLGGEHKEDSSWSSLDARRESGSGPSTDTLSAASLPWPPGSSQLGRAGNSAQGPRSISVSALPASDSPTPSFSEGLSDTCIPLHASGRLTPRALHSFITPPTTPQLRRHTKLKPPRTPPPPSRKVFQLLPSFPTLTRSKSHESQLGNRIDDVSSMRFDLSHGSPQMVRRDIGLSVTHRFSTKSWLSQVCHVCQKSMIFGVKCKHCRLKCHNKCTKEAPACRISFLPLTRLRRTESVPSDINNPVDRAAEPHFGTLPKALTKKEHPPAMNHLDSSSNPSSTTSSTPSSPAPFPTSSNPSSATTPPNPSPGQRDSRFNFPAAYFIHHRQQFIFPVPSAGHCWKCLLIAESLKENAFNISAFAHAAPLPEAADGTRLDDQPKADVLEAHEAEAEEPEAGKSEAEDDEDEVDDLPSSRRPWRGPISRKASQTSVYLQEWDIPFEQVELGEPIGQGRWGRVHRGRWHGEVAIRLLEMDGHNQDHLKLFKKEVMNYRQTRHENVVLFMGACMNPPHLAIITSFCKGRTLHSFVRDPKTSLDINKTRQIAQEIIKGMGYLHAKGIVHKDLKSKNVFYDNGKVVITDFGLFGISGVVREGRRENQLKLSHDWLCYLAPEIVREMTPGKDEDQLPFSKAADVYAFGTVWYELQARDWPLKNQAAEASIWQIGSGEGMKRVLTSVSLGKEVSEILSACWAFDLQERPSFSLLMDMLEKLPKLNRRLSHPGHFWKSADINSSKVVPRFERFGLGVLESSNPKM
Assay: cell-based or functional assay

B1: praja2 (endogenous) (natural protein, human (endogenous in HEK293), UniProt O43164 1-708, looked up)
chain: MSQYTEKEPAAMDQESGKAVWPKPAGGYQTITGRRYGRRHAYVSFKPCMTRHERSLGRAGDDYEVLELDDVPKENSSGSSPLDQVDSSLPSEPIFEKSETEIPTCGSALNQTTESSQSFVAVHHSEEGRDTLGSSTNLHNHSEGEYIPGACSASSVQNGIALVHTDSYDPDGKHGEDNDHLQLSAEVVEGSRYQESLGNTVFELENREAEAYTGLSPPVPSFNCEVRDEFEELDSVPLVKSSAGDTEFVHQNSQEIQRSSQDEMVSTKQQNNTSQERQTEHSPEDAACGPGHICSEQNTNDREKNHGSSPEQVVRPKVRKLISSSQVDQETGFNRHEAKQRSVQRWREALEVEESGSDDLLIKCEEYDGEHDCMFLDPPYSRVITQRETENNQMTSESGATAGRQEVDNTFWNGCGDYYQLYDKDEDSSECSDGEWSASLPHRFSGTEKDQSSSDESWETLPGKDENEPELQSDSSGPEEENQELSLQEGEQTSLEEGEIPWLQYNEVNESSSDEGNEPANEFAQPAFMLDGNNNLEDDSSVSEDLDVDWSLFDGFADGLGVAEAISYVDPQFLTYMALEERLAQAMETALAHLESLAVDVEVANPPASKESIDGLPETLVLEDHTAIGQEQCCPICCSEYIKDDIATELPCHHFFHKPCVSIWLQKSGTCPVCRRHFPPAVIEASAAPSSEPDPDAPPSNDSIAEAP
growth of MCF-7 cells treated for 48 h with go-onERK-Flag against scrambled-Flag (cell counts): ~2 fold
